Results reported in the DeepSol protein solubility set.

Experiment: soluble on expression in E. coli; label from the status in PepcDB or PDB records

Sequence | soluble on expression in E. coli
MSLLNPVLLPPKVKAYLSQGERFIKWDDETTVASPVILRVDPKGYYLYWTYQSKEMEFLDITSIRDTRFGKFAKMPKSQKLRDVFNMDFPDNSFLLKTLTVVSGPDMVDLTFHNFVSYKENVGKAWAEDVLALVKHPLTANASRSTFLDKILVKLKMQLNSEGKIPVKNFFQMFPADRKRVEAALSACHLPKGKNDAINPEDFPEPVYKSFLMSLCPRPEIDEIFTSYHAKAKPYMTKEHLTKFINQKQRDSRLNSLLFPPARPDQVQGLIDKYEPSGINAQRGQLSPEGMVWFLCGPENSVLAQDKLLLHHDMTQPLNHYFINSSHNTYLTAGQFSGLSSAEMYRQVLLSGCRCVELDCWKGKPPDEEPIITHGFTMTTDIFFKEAIEAIAESAFKTSPYPIILSFENHVDSPRQQAKMAEYCRTIFGDMLLTEPLEKFPLKPGVPLPSPEDLRGKILIKNKKNQFSGPTSSSKDTGGEAEGSSPPSAPAVWAGEEGTELEEEEVEEEEEEESGNLDEEEIKKMQSDEGTAGLEVTAYEEMSSLVNYIQPTKFVSFEFSAQKNRSYVISSFTELKAYDLLSKASVQFVDYNKRQMSRIYPKGTRMDSSNYMPQMFWNAGCQMVALNFQTMDLPMQQNMAVFEFNGQSGYLLKHEFMRRPDKQFNPFSVDRIDVVVATTLSITVISGQFLSERSVRTYVEVELFGLPGDPKRRYRTKLSPSTNSINPVWKEEPFVFEKILMPELASLRVAVMEEGNKFLGHRIIPINALNSGYHHLCLHSESNMPLTMPALFIFLEMKD | soluble
MSLLTSNLGYPRIGENREWKKALESFWANDTTEEQLLATMKELRLNHLRVQQEQEVDLIPVGDFTLYDHVLDMAVMFGIIPKRFLQQGDTPTLSTYFAMARGSKNAQACEMTKWYNTNYHYIVPELHDAAPRLTKNAPLEAYLEAKNELGIDGKPVILGPYSFVKLAKGYEEDKLQETIQSLLPLYIQVIQELVDAGARSIQVDEPSLVTSISAREMALVTRIYEQINEAIADAPLFLQTYFDAVTFYEEVVSLPVKGIGLDFVHGGAKNLEALRTFGFPEDKVLAAGIIDGRNIWISNLRERHELVHQLEQHVAKDRLVLQPSCSLLHVPVTTKREEKLDPTLLGVLAFANEKLTELHTLKQLAAGNEAEVKEALEANDDALAALEKSGWRSGAATSHNLENKKRPQSFNERRPLQEEKWQLPLLPTTTIGSFPQTKDVRRTRSLWRKGELSTVEYERTMKSYIEKWINIQEELGLDVLVHGEFERNDMVEFFGEKLDGFAFTANGWVQSYGSRCVKPPIIYGNVSFTEPMTVAETVYAQSLTDKPVKGMLTGPVTILNWSFVRDDLPLTVIAHQIAEALTHEVTALEEAGIEMIQIDEPAIREGLPLKAEDQQEYLDWAVSAFRASCAHVKATTQIHTHMCYSEFHEMIEAIDDLDADVISIETSRSHGEMISAFEKTTYEKGIGLGVYDIHSPRVPSEEEMLNVIRRALTVLPASLFWVNPDCGLKTRAEKETVAALKNMVAAARAAREELKTKAEGHHHHHH | soluble
MSLMKITSVDIIDVANDFASATSKWRPVVVKINTDEGISGFGEVGLAYGVGASAGIGMAKDLSAIIIGMDPMNNEAIWEKMLKKTFWGQGGGGIFSAAMSGIDIALWDIKGKAWGVPLYKMLGGKSREKIRTYASQLQFGWGDGSDKDMLTEPEQYAQAALTAVSEGYDAIKVDTVAMDRHGNWNQQNLNGPLTDKILRLGYDRMAAIRDAVGPDVDIIAEMHAFTDTTSAIQFGRMIEELGIFYYEEPVMPLNPAQMKQVADKVNIPLAAGERIYWRWGYRPFLENGSLSVIQPDICTCGGITEVKKICDMAHVYDKTVQIHVCGGPISTAVALHMETAIPNFVIHELHRYALLEPNTQTCKYNYLPKNGMYEVPELPGIGQELTEETMKKSPTITVKEGHHHHHH | soluble
MSLMKNMARKNQKAPWEEEEEIIWVSRTELKNDMLALQKLGEELVELKPSALAKFPLPEDLAEAIKDAQRFKNEARRRQLQYIGKLMRHIDPEPLQAALDKLRNKHSQTTALLHKLEQLRDRIVAEGDSAIEVAMEQYPEADRQRLRLLARQASKEKAGNKPPKSSREIFQLLKEAMLAKQEIEEESEDDLDSAEEGHHHHHH | soluble
MSLNENLQELIPTKLAAAIANPLFPAVDSQLRSGRHIGQEYLDNFAFLADFQNELDMFYRRYNVELIRAPEGFFYLRPKATTLIARSVLSELEMLVGKVLCYLYLSPERLAQQGIFSVQEVYDELLNLADESKLLKAVNQRSSGSDLDKQKLAEKVRAAVNRLRRLGMIHTVGEQNSGKFTISESVFRFGAEVRSGDDPREAQLRLIRDGEAATPDSLSQEKSAVKNDEEIEDELDEGLGEEEEGHHHHHH | soluble
MSLNGQSEYKGKLDYIIVLGAGLRGKHMLGTQYERVKKAAEYVKENPDVKIVVSGGKGNGEDISEAEAMKQYFLNKGFKNDSIIMEDKSKNTFENLRNSKKILEKISNKKEIRVGVVTSSYHITRAKLLGKRVGLKLYAIPAPINKLLLLQSYTREFFAFYKSIIFDRGEGHHHHHH | not soluble
MSLNIPLSGIIPPLVTPLLDDDVLDVEGLQRLIEHLIAGGVHALFVLGTTGESQSLSYKLRMEMIKNTCRIAKGRLPVLVCISDTSIVESVNLACLAADHGADAVVSAPPYYFATGQPELIEFYEHLLPQLPLPLFLYNMPTHTKVNFAPATIQRIAENPGVIGFKDSSANTVYFQSVMYAMKDNPDFSMLVGPEEIMAESVLLGAHGGVNGGANMFPELYVSLYNAAKNADMEEVRRLQEKVMQISATIYTVGQHGSSYLKGLKCALSLLGICSDYVAAPFHKFEQRERGKIWKALQNLGVDEGHHHHHH | soluble
MSLNKKIIFFDIDGTLLVHNGKESTIPYSTKEALKKLKEKGHNLFICSGRPIRFAIQEFQEMVDGYICCNGTYIVYNGKCIYNKLIDKDTLKYLIKEFCKLGISASFSGAYNGYSYNMSSEKIHQMNRFYKTENPYILDNWNIEEIEANNVDVFFKNNEHMEKCIKYLEHKLIFNTHKPYLSADVSFKNWDKSKGIEYLVKYMKRDMKDTMAFGDGKNDITMLKTVNIGIAMGNAVDEVKNKADMVTDSAADDGIYNALNKLHLIEGHHHHHH | soluble
MSLNKKMIFFDIDGTIVDEKTHVIPEGTIAAIKKARSNGHLVFINTGRTFFNVPDSIRQIGFDGYVCGCGTYIHINGQTLLEKSISHKRCVEIVEKLRECKLDALLEGQKDFFFDQREPVSEKTLELKSKFGKRGYDVSKSWDDSDIVFDKFVIWTRKESNLEAFKSHISNDFDYIDREDEEGEFGEIVLKGYSKATGIKFLQDYFNIPIEDCYALGDSLNDLPMLQYVPNSIAMGNSSKGLFDLVAFVTKDIMEDGIEYALKHYNIIEGHHHHHH | soluble
MSLNKKVDIRHIFISSQERGKEEAKKLADEIYNRLKNNEDFETLAKQYSDDEKTKESGGVITELRAGFNEAVFDNAVFTAEAGQLLEPIEVARGYEIVYVDKVTDFYRTRDEYAELLTVDKFMQSDAYKEWFEEYKKNYDIEITDPAMKAFRLFREKQYNEAGALYEELYKSEKDAYYIEMACEAYKLAENWAGLIEAGKLAVKENPDFVNYYLYQAEGEFKVGDANKAKELLKEAEKKAGDNTYFLDLIRKMYESQGLAEDVERIDRKFQEISEKLKGEGHHHHHH | soluble
MSLNKPFERRSLLRGAGALTAASLAPWAAGCAADDDDALTFFFAANPDELRPRMRVVNEFQRRYPDIKVRALLSGPGVMQQLATFCAGGKCPDVLMAWELTYAELADRGVLLDLNTLLARDQAFAAELKSDSIGALYETFTFNGGQYAFPEQWSGNFLFYNKQLFDDAGVPPPPGSWERPWSFAEFLDAAQALTKQGRSGRDRQWGFVNAWVSFYAAGLFAMNNGVPWSVPRMNPTHLNFDHDGFLEAVQFYADLTNKHKVAPSAAEQQSMSTADLFSVGKAGIALAGHWRYQTFDRADGLDFDVAPLPIGPRGRAACSDIGVTGLAIAATSRRKDQAWEFVKFATGPVGQALIGESRLFVPVLRSAINSHGFANAHRRVGNLAVLSEGPAYSEGLPVTPAWEKIAALMDRYFGPVLRGSRPATSLTGLSQAVDEVLRNEGHHHHHH | not soluble
MSLNKRKGILAIGAHPDDIELGCGASLARLAQKGIYIATVVMTTGNSGVDGIIDRHEESRNALKILGCHQTIHLNFADTRAHLQLNDMISALENIIKNQIPSDVEIIRVYTMHDADRHQDHLAVYQASMVACRAIPQILGYETPSTWLSFMPQVFESVKEEYFSLKLTALKKHKSQSQRDYMRPERLRAVAQFRGQQVNSDLGEGFVIHKMILEGHHHHHH | not soluble
